This assay deals with epiligrin-ECM^t (trypsin-treated HFK-ECM) (human) (UniProt Q16787). The experiment in a line: cell-based or functional assay.

Results on 1 substance are retold here after patent EP1808439A2.

UniProt Q16787, sequence (Q16787 other isoform, or with tags, fused parts or gaps): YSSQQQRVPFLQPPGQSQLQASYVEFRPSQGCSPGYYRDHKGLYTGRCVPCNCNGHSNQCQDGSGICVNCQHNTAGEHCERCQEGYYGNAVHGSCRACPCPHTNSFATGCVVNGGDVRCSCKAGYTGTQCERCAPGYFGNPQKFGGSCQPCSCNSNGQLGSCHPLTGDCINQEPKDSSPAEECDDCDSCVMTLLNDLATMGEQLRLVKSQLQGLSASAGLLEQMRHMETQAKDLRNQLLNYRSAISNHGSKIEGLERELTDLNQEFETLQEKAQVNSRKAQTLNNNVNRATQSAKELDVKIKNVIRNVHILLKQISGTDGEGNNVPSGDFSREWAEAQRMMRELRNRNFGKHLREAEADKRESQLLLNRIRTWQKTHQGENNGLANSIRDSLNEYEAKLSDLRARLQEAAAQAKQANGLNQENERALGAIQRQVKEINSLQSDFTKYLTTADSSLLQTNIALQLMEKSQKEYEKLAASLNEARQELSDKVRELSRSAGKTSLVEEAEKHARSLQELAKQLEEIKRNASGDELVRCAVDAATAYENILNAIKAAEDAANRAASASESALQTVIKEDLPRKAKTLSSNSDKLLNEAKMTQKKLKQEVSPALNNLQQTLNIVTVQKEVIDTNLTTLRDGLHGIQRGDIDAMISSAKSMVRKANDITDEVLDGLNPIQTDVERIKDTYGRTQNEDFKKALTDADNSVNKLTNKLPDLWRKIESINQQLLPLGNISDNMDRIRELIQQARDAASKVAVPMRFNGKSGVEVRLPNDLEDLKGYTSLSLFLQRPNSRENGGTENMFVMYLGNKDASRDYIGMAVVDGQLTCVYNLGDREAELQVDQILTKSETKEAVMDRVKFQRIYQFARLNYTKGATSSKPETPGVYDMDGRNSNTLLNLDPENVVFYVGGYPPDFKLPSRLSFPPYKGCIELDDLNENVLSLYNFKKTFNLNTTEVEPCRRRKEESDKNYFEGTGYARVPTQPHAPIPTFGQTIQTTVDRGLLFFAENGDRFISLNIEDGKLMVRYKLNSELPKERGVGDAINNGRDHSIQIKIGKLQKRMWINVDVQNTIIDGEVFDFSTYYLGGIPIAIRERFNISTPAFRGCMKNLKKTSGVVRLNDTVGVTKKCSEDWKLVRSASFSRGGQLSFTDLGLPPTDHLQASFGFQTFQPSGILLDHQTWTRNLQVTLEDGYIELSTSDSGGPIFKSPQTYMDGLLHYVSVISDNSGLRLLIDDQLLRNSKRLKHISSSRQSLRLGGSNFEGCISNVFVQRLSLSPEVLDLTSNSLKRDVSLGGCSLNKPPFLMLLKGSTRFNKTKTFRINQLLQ

In turn, “integrin α6β4, P23229 24-1130; P16144 28-1822” came in with a % adherent cells, 51Cr-labelled HFK on epiligrin-ECM^t, 4°C, 0 min of 30%; a % adherent cells, 51Cr-labelled HFK on epiligrin-ECM^t, 4°C, 2 min of 28%; a % adherent cells, 51Cr-labelled HFK on epiligrin-ECM^t, 4°C, 5 min of 28%; a % adherent cells, 51Cr-labelled HFK on epiligrin-ECM^t, 4°C, 10 min of 25%. Also, the % adherent cells, 51Cr-labelled HFK on epiligrin-ECM^t, 4°C, 15 min was found to be 37%; the % adherent cells, 51Cr-labelled HFK on epiligrin-ECM^t, 4°C, 25 min worked out at 35%; the % adherent cells, 51Cr-labelled HFK on epiligrin-ECM^t, 4°C, 30 min amounted to 31%; the % adherent cells, 51Cr-labelled HFK on epiligrin-ECM^t, 4°C, 45 min was 30%. The substance also displayed a % adherent cells, 51Cr-labelled HFK on epiligrin-ECM^t, 4°C, 60 min of 35%; a % adherent cells, 51Cr-labelled HFK on epiligrin-ECM^t, 37°C, 0 min of 0%; a % adherent cells, 51Cr-labelled HFK on epiligrin-ECM^t, 37°C, 2 min of 10%; a % adherent cells, 51Cr-labelled HFK on epiligrin-ECM^t, 37°C, 5 min of 10%. Moreover, the % adherent cells, 51Cr-labelled HFK on epiligrin-ECM^t, 37°C, 10 min is 20%; the % adherent cells, 51Cr-labelled HFK on epiligrin-ECM^t, 37°C, 15 min is 26%; the % adherent cells, 51Cr-labelled HFK on epiligrin-ECM^t, 37°C, 25 min worked out at 36%; the % adherent cells, 51Cr-labelled HFK on epiligrin-ECM^t, 37°C, 30 min worked out at 38%. The same substance yielded a % adherent cells, 51Cr-labelled HFK on epiligrin-ECM^t, 37°C, 45 min of 50% and a % adherent cells, 51Cr-labelled HFK on epiligrin-ECM^t, 37°C, 60 min of 60%.
